Starred links: 1 amine or outer side, 2 acyl side, 3 side chain; linkers in the order of their positions; H or OH if unused. Positions of bridges follow the written chain, without caps; N, C: chain ends. Non-standard residues stand in square brackets, D forms with d. Primed or numbered codes have the meaning given here. *: point of attachment. B5(10) = 2-amino-2-(pent-4-en-1-yl)hept-6-enoic acid, bis(4-pentenyl)glycine, stitching residue bearing both staples, C=CCCCC(CCCC=C)(N[*:1])C(=O)[*:2]; PyrS2″ = (S)-3-amino-1-((pent-4-en-1-yloxy)carbonyl)pyrrolidine-3-carboxylic acid (stapling residue), C=CCCCOC(=O)N1CC[C@@](N[*:1])(C(=O)[*:2])C1; B5(5) = 2,2-bis(4-pentenyl)glycine, 2-amino-2-(pent-4-en-1-yl)hept-6-enoic acid (stitching residue), C=CCCCC(CCCC=C)(N[*:1])C(=O)[*:2]; PyrS2 = (S)-3-amino-1-((pent-4-en-1-yloxy)carbonyl)pyrrolidine-3-carboxylic acid, C=CCCCOC(=O)N1CC[C@@](N[*:1])(C(=O)[*:2])C1; B5(12) = 2-amino-2-(pent-4-en-1-yl)hept-6-enoic acid (two olefin side chains), C=CCCCC(CCCC=C)(N[*:1])C(=O)[*:2]; B5(19) = 2-amino-2-(pent-4-en-1-yl)hept-6-enoic acid (bis(4-pentenyl)glycine), C=CCCCC(CCCC=C)(N[*:1])C(=O)[*:2]; B5(3) = 2,2-bis(4-pentenyl)glycine (stitching residue), C=CCCCC(CCCC=C)(N[*:1])C(=O)[*:2]; Phe(3-COOH) = N[C@@H](Cc1cccc(C(=O)O)c1)C(=O)O; Phe(2-CF3) = N[C@@H](Cc1ccccc1C(F)(F)F)C(=O)O; Phe(2-Cl) = N[C@@H](Cc1ccccc1Cl)C(=O)O; Bta = N[C@@H](Cc1csc2ccccc12)C(=O)O; Lys(iPr) = CC(C)NCCCC[C@H](N)C(=O)O; αAllylPro = C=CC[C@@]1(C(=O)O)CCCN1; tBuAla = CC(C)(C)C[C@H](N)C(=O)O; 3Thi = N[C@@H](Cc1ccsc1)C(=O)O; S8 = C=CCCCCCC[C@](C)(N)C(=O)O; hSer = N[C@@H](CCO)C(=O)O; Nle = CCCC[C@H](N)C(=O)O; iPr = CC(C)*

B1: I-1397 (peptide)
peptide: Ac-[αAllylPro]D[tBuAla][B5(19)]DDAAF[hSer][S8][Phe(2-CF3)][Bta]Q-NH2
modifications: staple 1-4, 4-11
B2: I-1395 (peptide)
peptide: Ac-[αAllylPro]D[tBuAla][B5(19)]DDAAF[hSer][S8][Phe(2-Cl)][Bta]Q-NH2
modifications: staple 1-4, 4-11
B3: I-1411 (peptide)
peptide: Ac-[αAllylPro]D[Nle][B5(12)]DDAAFL[PyrS2″][3Thi][Bta]L-NH2
modifications: staple 1-4, 4-11; also: staple isomer, earlier eluting HPLC peak
B4: I-1412 (peptide)
peptide: Ac-[αAllylPro]D[Nle][B5(12)]DDAAFL[PyrS2″][3Thi][Bta]L-NH2
modifications: staple 1-4, 4-11
B5: I-1405 (peptide)
peptide: Ac-[αAllylPro]D[Nle][B5(12)]DDAAF[Nle][PyrS2″]F[Bta]Q-NH2
modifications: staple 1-4, 4-11
B6: I-1407 (peptide)
peptide: Ac-[αAllylPro]DL[B5(12)]D[Phe(3-COOH)]AAF[Nle][PyrS2″][3Thi][Bta]Q-NH2
modifications: staple 1-4, 4-11
B7: I-1404 (peptide)
peptide: Ac-[αAllylPro]DL[B5(12)]DDAAF[Nle][PyrS2″]F[Bta]Q-NH2
modifications: staple 1-4, 4-11
B8: I-1401 (peptide)
peptide: Ac-[αAllylPro]D[Nle][B5(19)]DDAAF[Nle][PyrS2][3Thi][Bta]Q-NH2
modifications: staple 1-4, 4-11
B9: I-1409 (peptide)
peptide: Ac-[αAllylPro]D[tBuAla][B5(12)]DDAAFL[PyrS2″][3Thi][Bta]L-NH2
modifications: staple 1-4, 4-11
B10: I-1410 (peptide)
peptide: Ac-[αAllylPro]DL[B5(12)]DDAAFL[PyrS2″][3Thi][Bta]L-NH2
modifications: staple 1-4, 4-11
B11: I-1406 (peptide)
peptide: Ac-[αAllylPro]DL[B5(12)]D[Phe(3-COOH)]AAFL[PyrS2″][3Thi][Bta]Q-NH2
modifications: staple 1-4, 4-11
B12: I-1275 (peptide)
peptide: Ac-[αAllylPro]D[tBuAla][B5(3)]DDK(iPr)AFL[PyrS2″][Phe(2-Cl)][Bta]Q-NH2
modifications: staple 1-4, 4-11
B13: I-1277 (peptide)
peptide: Ac-[αAllylPro]D[tBuAla][B5(3)]DDK(iPr)AFL[PyrS2″][Phe(2-Cl)][Bta]L-NH2
modifications: staple 1-4, 4-11
B14: I-1278 (peptide)
peptide: Ac-[αAllylPro]D[tBuAla][B5(5)]DDAAFK(iPr)[PyrS2][Phe(2-Cl)][Bta]Q-NH2
modifications: staple 1-4, 4-11
B15: I-1280 (peptide)
peptide: Ac-[αAllylPro]D[tBuAla][B5(5)]DDAAFK(iPr)[PyrS2][Phe(2-Cl)][Bta]L-NH2
modifications: staple 1-4, 4-11
B16: I-1282 (peptide)
peptide: Ac-[αAllylPro]D[tBuAla][B5(5)]DEAAFK(iPr)[PyrS2][Phe(2-Cl)][Bta]T-NH2
modifications: staple 1-4, 4-11
B17: I-1276 (peptide)
peptide: Ac-[αAllylPro]D[tBuAla][B5(3)]DDK(iPr)AFL[PyrS2″][Phe(2-Cl)][Bta]T-NH2
modifications: staple 1-4, 4-11
B18: I-1281 (peptide)
peptide: Ac-[αAllylPro]D[tBuAla][B5(5)]DEAAFK(iPr)[PyrS2][Phe(2-Cl)][Bta]Q-NH2
modifications: staple 1-4, 4-11
B19: I-1279 (peptide)
peptide: Ac-[αAllylPro]D[tBuAla][B5(5)]DDAAFK(iPr)[PyrS2][Phe(2-Cl)][Bta]T-NH2
modifications: staple 1-4, 4-11
B20: I-1283 (peptide)
peptide: Ac-[αAllylPro]D[tBuAla][B5(5)]DEAAFK(iPr)[PyrS2][Phe(2-Cl)][Bta]L-NH2
modifications: staple 1-4, 4-11
B21: I-2043 (peptide)
peptide: Ac-[αAllylPro]D[tBuAla][B5(3)]D[Phe(3-COOH)]AAFL[PyrS2″][3Thi][Bta]N-NH2
modifications: staple 1-4, 4-11
B22: I-2033 (peptide)
peptide: Ac-[αAllylPro]D[tBuAla][B5(3)]D[Phe(3-COOH)]AAFN[PyrS2″][Phe(2-Cl)][Bta]F-NH2
modifications: staple 1-4, 4-11
B23: I-2035 (peptide)
peptide: Ac-[αAllylPro]D[tBuAla][B5(3)]D[Phe(3-COOH)]AAFA[PyrS2″][Phe(2-Cl)][Bta]N-NH2
modifications: staple 1-4, 4-11; also: staple isomer, earlier eluting HPLC peak
B24: I-2040 (peptide)
peptide: Ac-[αAllylPro]D[tBuAla][B5(3)]D[Phe(3-COOH)]AAFL[PyrS2″][Phe(2-Cl)][Bta]NAAA-NH2
modifications: staple 1-4, 4-11
B25: I-2042 (peptide)
peptide: Ac-[αAllylPro]D[tBuAla][B5(3)]D[Phe(3-COOH)]AAFA[PyrS2″][3Thi][Bta]N-NH2
modifications: staple 1-4, 4-11
B26: I-2041 (peptide)
peptide: Ac-[αAllylPro]D[tBuAla][B5(3)]D[Phe(3-COOH)]AAFL[PyrS2″][Phe(2-Cl)][Bta]NAA[dA]-NH2
modifications: staple 1-4, 4-11
B27: I-2044 (peptide)
peptide: Ac-[αAllylPro]D[tBuAla][B5(3)]D[Phe(3-COOH)]AAFF[PyrS2″][3Thi][Bta]N-NH2
modifications: staple 1-4, 4-11
B28: I-2037 (peptide)
peptide: Ac-[αAllylPro]D[tBuAla][B5(3)]D[Phe(3-COOH)]AAFF[PyrS2″][Phe(2-Cl)][Bta]N-NH2
modifications: staple 1-4, 4-11
B29: I-2036 (peptide)
peptide: Ac-[αAllylPro]D[tBuAla][B5(3)]D[Phe(3-COOH)]AAFA[PyrS2″][Phe(2-Cl)][Bta]N-NH2
modifications: staple 1-4, 4-11

The first assay has as its target full-length beta-Catenin (Uniprot ID P35222) (Homo sapiens (Human)) (UniProt P35222). The assay is described as follows: FP competition; full-length beta-catenin, competitor 5FAM-TCF4(10-53).
Target sequence in this assay (P35222 whole entry, one chain of several): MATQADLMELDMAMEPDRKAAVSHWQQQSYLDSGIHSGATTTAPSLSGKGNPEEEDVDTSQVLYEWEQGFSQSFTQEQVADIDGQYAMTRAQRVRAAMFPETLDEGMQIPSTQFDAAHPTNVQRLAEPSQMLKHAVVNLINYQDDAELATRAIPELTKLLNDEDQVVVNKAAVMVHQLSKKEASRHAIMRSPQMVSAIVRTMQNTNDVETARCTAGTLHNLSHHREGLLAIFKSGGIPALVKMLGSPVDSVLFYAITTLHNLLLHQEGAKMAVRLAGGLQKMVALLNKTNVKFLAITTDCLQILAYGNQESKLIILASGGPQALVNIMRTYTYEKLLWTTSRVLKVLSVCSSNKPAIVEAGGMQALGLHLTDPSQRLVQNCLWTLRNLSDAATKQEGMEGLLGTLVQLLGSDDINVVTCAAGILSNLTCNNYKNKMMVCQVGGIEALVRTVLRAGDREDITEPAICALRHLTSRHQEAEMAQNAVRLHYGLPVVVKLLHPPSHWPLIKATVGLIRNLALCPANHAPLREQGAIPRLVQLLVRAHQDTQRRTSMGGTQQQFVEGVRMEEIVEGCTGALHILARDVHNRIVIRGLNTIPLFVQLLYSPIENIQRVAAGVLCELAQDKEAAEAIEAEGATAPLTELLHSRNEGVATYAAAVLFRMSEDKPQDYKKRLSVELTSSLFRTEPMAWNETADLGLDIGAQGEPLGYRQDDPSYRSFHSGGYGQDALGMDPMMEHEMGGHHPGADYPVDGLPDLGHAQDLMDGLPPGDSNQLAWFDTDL
Broadly, the EC50 is the midpoint of the concentration-response curve. The molecule B1 had an EC50 of 48 nM.
On the same count and under the same terms, the same measure for B2: 33 nM.

The target of the next assay is Bcat-Halo (beta-catenin HaloTag construct expressed in HEK293 cells) (UniProt P35222). The assay is described as follows: NanoBRET Abs IC50 in HEK293 cells; B-cat-Halo with competitor TCF4-Luc. (In general: Bioluminescence resonance energy transfer reports proximity on the nanometre scale.)
Chain of Bcat-Halo (beta-catenin HaloTag construct expressed in HEK293 cells) (P35222 whole entry): as the sequence (P35222 whole entry, one chain of several) above
One may read the IC50 as the point on the concentration scale where inhibition reaches its midpoint. Take B3: the IC50 was found to be 47100 nM.
Consider B4, for which the IC50 is above 20000 nM.
Regarding B5, the IC50 is 40100 nM.
Still for that read-out and setting: the same measure for B6: 4200 nM; for B7: 36800 nM; for B1: 16400 nM.
Still for that read-out and setting: the same measure for B2: 15400 nM.
B8 gave an IC50 of 21400 nM.
Same read-out and setting: the same measure for B9: 24000 nM; for B10: 29300 nM; for B11: 5000 nM.

Another assay deals with Bcat-Halo (UniProt P35222). In words: NanoBRET Abs IC50, HEK293 cells, Bcat-Halo/TCF4-Luc; competitor TCF4-Luc.
Chain of Bcat-Halo (P35222 whole entry): as the sequence (P35222 whole entry, one chain of several) above
In turn, B12 had an IC50 of 27800 nM.
Turning to B13, the IC50 was above 20000 nM.
The same measure, in the same setting: for B14 the value was 18000 nM.
As for B15, the IC50 turned out to be 24700 nM.
The same measure, in the same setting: for B16 the value was 43100 nM; for B17, above 20000 nM; for B18, 22200 nM.
Still for that read-out and setting: for B19 the value was 22900 nM.
B20 had an IC50 of 38600 nM.

A further assay concerns the target full-length beta-Catenin (Uniprot ID P35222) (Homo sapiens (Human)) (UniProt P35222). The assay is described as follows: fluorescence polarization competition; full-length beta-catenin + 5FAM-TCF4(10-53) probe. For orientation: Polarisation of emitted light reports the rotation of a fluorescent probe.
Target sequence in this assay (P35222 whole entry, one chain of several): as above
B12: the EC50 was 9 nM.
For B13, the EC50 came out at 17 nM.
Still for that read-out and setting: the same measure for B14: 10 nM; for B15: 22 nM; for B16: 34 nM.
Still for that read-out and setting: the same measure for B17: 10 nM.
For the molecule B18, the EC50 was determined as 10 nM.
On the same count and under the same terms, for B19 the value was 12 nM; for B20, 26 nM.

The target is the same in a further assay. The assay is described as follows: fluorescence polarization competition against 5FAM-TCF4(10-53) on full-length beta-catenin.
Target sequence in this assay (P35222 whole entry, one chain of several): as above
The molecule B12 yielded an IC50 of 9 nM.
The same measure, in the same setting: the same measure for B13: 17 nM.
Molecule B14 had an IC50 of 10 nM.
Still for that read-out and setting: for B15 the value was 22 nM; for B16, 34 nM; for B17, 10 nM.
Still for that read-out and setting: for B18 the value was 10 nM; for B19, 12 nM; for B20, 26 nM.

A further assay has the same target. The assay is described as follows: fluorescence polarization competition against 5FAM-TCF4 (10-53) on full-length beta-catenin.
Target sequence in this assay (P35222 2-781 limits assumed): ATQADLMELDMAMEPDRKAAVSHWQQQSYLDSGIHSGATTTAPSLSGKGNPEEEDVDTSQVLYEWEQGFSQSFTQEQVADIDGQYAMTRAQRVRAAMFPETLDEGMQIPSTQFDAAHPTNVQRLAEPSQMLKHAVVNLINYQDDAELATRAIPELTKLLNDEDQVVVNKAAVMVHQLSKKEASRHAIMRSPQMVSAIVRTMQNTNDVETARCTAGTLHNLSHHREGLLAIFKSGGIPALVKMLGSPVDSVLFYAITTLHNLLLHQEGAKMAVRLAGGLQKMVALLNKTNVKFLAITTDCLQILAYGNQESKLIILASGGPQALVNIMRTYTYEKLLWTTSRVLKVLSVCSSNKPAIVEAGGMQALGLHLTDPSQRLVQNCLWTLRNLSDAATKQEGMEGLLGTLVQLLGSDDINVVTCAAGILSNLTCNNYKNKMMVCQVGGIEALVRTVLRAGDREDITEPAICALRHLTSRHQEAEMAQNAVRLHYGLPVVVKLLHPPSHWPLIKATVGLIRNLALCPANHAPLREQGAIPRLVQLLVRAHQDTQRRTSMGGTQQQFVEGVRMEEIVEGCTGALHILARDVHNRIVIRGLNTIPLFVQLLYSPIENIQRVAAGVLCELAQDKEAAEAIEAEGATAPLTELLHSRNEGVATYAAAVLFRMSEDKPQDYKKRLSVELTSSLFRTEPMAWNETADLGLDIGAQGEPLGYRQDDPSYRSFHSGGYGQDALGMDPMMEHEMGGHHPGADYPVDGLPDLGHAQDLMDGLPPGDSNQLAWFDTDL
For B21, the IC50 is 8 nM.
Still for that read-out and setting: the same measure for B22: 30 nM.
Take B23: the IC50 stood at 16 nM.
In turn, B24 returned an IC50 of 24 nM.
Regarding B25, the IC50 amounted to 9 nM.
On the same count and under the same terms, for B26 the value was 16 nM; for B27, 9 nM.
Molecule B28 showed an IC50 of 17 nM.
Still for that read-out and setting: the same measure for B29: 19 nM.

Another assay has the same target. In words: fluorescence polarization competition; full-length beta-catenin, competitor 5FAM-TCF4 10-53 probe.
Target sequence in this assay (P35222 2-781 limits assumed): as above
Take B3: the IC50 came to 109 nM.
On the same count and under the same terms, the same measure for B4: 79 nM; for B5: 9 nM.
The molecule B6 showed an IC50 of 5 nM.
Same read-out and setting: the same measure for B7: 113 nM; for B1: 48 nM.
In turn, B2 showed an IC50 of 33 nM.
In turn, B8 yielded an IC50 of 5 nM.
As to B9, the IC50 is 74 nM.
On to B10, for which the IC50 amounted to 80 nM.
The molecule B11 returned an IC50 of 6 nM.

In the next assay the target is beta-catenin (Homo sapiens (Human)) (UniProt P35222). The assay is described as follows: fluorescence polarization competition; full-length beta-catenin with 5FAM-TCF4(10-53) probe as competitor.
Chain of beta-catenin (Homo sapiens (Human)) (P35222 whole entry): as the sequence (P35222 whole entry, one chain of several) above
B3: the EC50 is 109 nM.
On to B4, for which the concentration for a half-maximal effect (EC50) is 79 nM.
The same measure, in the same setting: the same measure for B5: 9 nM; for B6: 5 nM.
The molecule B7 came in with an EC50 of 113 nM.
As to B8, the EC50 came to 5 nM.
The molecule B9 came in with an EC50 of 74 nM.
The same measure, in the same setting: the same measure for B10: 80 nM; for B11: 6 nM.

These data come from patent US20240116985A1, “STAPLED PEPTIDES AND METHODS THEREOF” (priority 2020, published 2024).
